# Paper PMC3348462
# Target: Glu148 (UniProt position 148, MVLGREGPTVQ)
# Test: kinetics
# Details: membrane-reconstituted, turning over in Cl-/36Cl- exchange (Cl- present)
row,Substance,pKa
1,"CLC-ec1 (H+/Cl- exchange transporter ClcA), wild type (Escherichia coli)",6.2±0.1
2,CLC-ec1 Y445L (Escherichia coli; Y445L),4.7±0.1
3,CLC-ec1 E203Q (Escherichia coli; E203Q),6.2±0.5
